Among the data in PMC6889914, “Identifying dynamic, partially occupied residues using anomalous scattering” (Acta Crystallographica. Section D, Structural Biology, 2019) are binding result, Ka and Kd values, retold here.

For assay [1], the target named is T1, Spy H96L (UniProt P77754 24-161, H96L).
T1 construct: also called Super Spy chaperone mutant Spy H96L
T1 sequence (looked up): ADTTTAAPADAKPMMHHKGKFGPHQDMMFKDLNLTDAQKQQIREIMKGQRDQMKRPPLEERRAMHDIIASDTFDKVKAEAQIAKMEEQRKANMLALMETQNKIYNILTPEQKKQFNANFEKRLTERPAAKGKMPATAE
Description: ITC; MicroCal iTC200; titration of Spy H96L (1.25 mM) with the Im7 6–26 peptides (0.11 µM wild type, 0.055 µM pI-Phe peptides); 10°C; 40 mM HEPES–NaOH pH 7.5, 100 mM NaCl; 2 µl injections at 180 s; one-site model. The conditions noted are these: both partners purified. (In general: In ITC the heat of successive injections is recorded.)

In assay [2] the target is T2, Spy H96L (UniProt P77754 24-161, H96L).
T2 sequence: T1 sequence (looked up)
Briefly: ITC.

Where no end group is shown, it is not given here. [ ]: non-standard residue; d: D form. Phe(4-I) = N[C@@H](Cc1ccc(I)cc1)C(=O)O

For SISDYTEAEFVQ[Phe(4-I)]LKEIEKEN [Im7 6–26 peptide L18pI-Phe], in assay [1], the binding result was “binds”. The Ka in assay [2] is 1.59e+06 M⁻¹.

For the molecule SISDYTEAEFVQL[Phe(4-I)]KEIEKEN [Im7 6–26 peptide L19pI-Phe], the binding result in assay [1] was “binds”. For the same molecule, the Ka in assay [2] is 219000 M⁻¹.

B1: Im7 6–26 peptide (wild type) (peptide)
peptide: SISDYTEAEFVQLLKEIEKEN
notes: also called wild-type Im7 6–26 peptide; Im7 peptide
As a reminder, the Kd is the constant that tells how readily two partners part at equilibrium. High values mean lower affinity, low ones higher affinity. In turn, B1 came in with a Kd in assay [1] of 7.8 ± 0.6 µM. Besides, the Ka in assay [2] was determined as 102000 M⁻¹.

B2: Im7 6–26 peptide K20pI-Phe (peptide)
peptide: SISDYTEAEFVQLLFEIEKEN
notes: also called L20pI-Phe (as misprinted in places)
Turning to B2, the binding result in assay [1] is “binds”. In assay [2], this molecule returned a Ka of 218000 M⁻¹.
